Assay results from publication PMC6215540, “Kinetic characterization of acetone monooxygenase from Gordonia sp. strain TY-5” (AMB Express, 2018).
Substitutions are numbered along the chain they refer to. Names and notes keep the numbering of the source. Each block holds one molecule with its values, some of them ahead of it.

Experiments:
[1] = molecular target: T1, GSTACMO (Gordonia sp. TY-5, UniProt A1IHE6); assay: stopped-flow flavin reduction at […] nm, hyperbolic fit of kobs; type: biochemical; conditions: 50 mM HEPES pH 7.5, 20% glycerol, 25 °C, anaerobic; oxidized enzyme; text b56 prints 121; table labels it ACMO, done on GSTACMO; read-out: Measured values
T1 construct: gene acmA; full-length with N-terminal GST tag kept (pGEX4T1), E. coli DH5alpha

[2] = test system: CC(=O)Cc1ccccc1; assay: purified protein; type: biochemical, Gordonia sp. TY-5; conditions: 100 µM NADPH, air-saturated 50 mM HEPES pH 7.5, 25 °C
[3] = molecular target: T2, ACMO (Gordonia sp. TY-5, UniProt A1IHE6); assay: NADPH oxidation at […] nm, competitive inhibition fit; type: biochemical; conditions: read-out: Measured values
T2 construct: gene acmA; full-length, codon-optimised gene in pGEX4T1, E. coli DH5alpha; N-terminal GST removed with thrombin; calculated mass 59,780 Da

[4] = molecular target: T3, GSTACMO (Gordonia sp. TY-5, UniProt A1IHE6, H325K); assay: flavin absorbance titration at […] nm, quadratic fit; type: binding
T3 construct: gene acmA; full-length with N-terminal GST tag kept (pGEX4T1), E. coli DH5alpha

[5] = molecular target: T4, ACMO (Gordonia sp. TY-5, UniProt A1IHE6, H325K); assay: NADPH oxidation at […] nm, competitive inhibition fit; type: biochemical; conditions: read-out: Measured values
T4 construct: gene acmA; full-length, codon-optimised gene in pGEX4T1, E. coli DH5alpha; N-terminal GST removed with thrombin; calculated mass 59,780 Da

[6] = molecular target: T1, GSTACMO; assay: flavin absorbance titration at […] nm, quadratic fit; type: binding
[7] = substrate: CC(C)C(=O)C(C)C; assay: purified protein; type: biochemical, Gordonia sp. TY-5; conditions: 100 µM NADPH, air-saturated 50 mM HEPES pH 7.5, 25 °C
[8] = substrate: CCC(C)=O; assay: purified protein; type: biochemical, Gordonia sp. TY-5; conditions: 100 µM NADPH
[9] = substrate: O=C1CCCCC1; assay: purified protein; type: biochemical, Gordonia sp. TY-5; conditions: 100 µM NADPH, air-saturated 50 mM HEPES pH 7.5, 25 °C
[10] = substrate: NC(=O)C1=CN([C@@H]2O[C@H](COP(=O)(O)OP(=O)(O)OC[C@H]3O[C@@H](n4cnc5c(N)ncnc54)[C@H](OP(=O)(O)O)[C@@H]3O)[C@@H](O)[C@H]2O)C=CC1; assay: purified protein; type: biochemical, Gordonia sp. TY-5; conditions: 200 μM butanone
[11] = substrate: CCCC(C)=O; assay: purified protein; type: biochemical, Gordonia sp. TY-5; conditions: 100 µM NADPH, air-saturated 50 mM HEPES pH 7.5, 25 °C
[12] = substrate: CC(=O)C(C)C; assay: purified protein; type: biochemical, Gordonia sp. TY-5; conditions: 100 µM NADPH, air-saturated 50 mM HEPES pH 7.5, 25 °C
[13] = substrate: O=C1CCC1; assay: purified protein; type: biochemical, Gordonia sp. TY-5; conditions: 100 µM NADPH, air-saturated 50 mM HEPES pH 7.5, 25 °C
[14] = substrate: O=C1CC2C=CCC12; assay: purified protein; type: biochemical, Gordonia sp. TY-5; conditions: 100 µM NADPH, air-saturated 50 mM HEPES pH 7.5, 25 °C
[15] = substrate: CC(C)=O; assay: purified protein; type: biochemical, Gordonia sp. TY-5; conditions: 100 µM NADPH, air-saturated 50 mM HEPES pH 7.5, 25 °C
[16] = substrate: O=C1CCCC1; assay: purified protein; type: biochemical, Gordonia sp. TY-5; conditions: 100 µM NADPH, air-saturated 50 mM HEPES pH 7.5, 25 °C
[17] = substrate: CCCCCC(C)=O; assay: purified protein; type: biochemical, Gordonia sp. TY-5; conditions: 100 µM NADPH, air-saturated 50 mM HEPES pH 7.5, 25 °C
[18] = air-saturated 50 mM HEPES pH 7.5, 25 °C
[19] = 50 mM HEPES pH 7.5, 25 °C, GST tag state not told, table row identical to the NADPH row, possible duplication
[20] = 50 mM HEPES pH 7.5, 25 °C, GST tag state not told, table row identical to the butanone row, possible duplication

T3 sequence (A1IHE6 whole entry H325K): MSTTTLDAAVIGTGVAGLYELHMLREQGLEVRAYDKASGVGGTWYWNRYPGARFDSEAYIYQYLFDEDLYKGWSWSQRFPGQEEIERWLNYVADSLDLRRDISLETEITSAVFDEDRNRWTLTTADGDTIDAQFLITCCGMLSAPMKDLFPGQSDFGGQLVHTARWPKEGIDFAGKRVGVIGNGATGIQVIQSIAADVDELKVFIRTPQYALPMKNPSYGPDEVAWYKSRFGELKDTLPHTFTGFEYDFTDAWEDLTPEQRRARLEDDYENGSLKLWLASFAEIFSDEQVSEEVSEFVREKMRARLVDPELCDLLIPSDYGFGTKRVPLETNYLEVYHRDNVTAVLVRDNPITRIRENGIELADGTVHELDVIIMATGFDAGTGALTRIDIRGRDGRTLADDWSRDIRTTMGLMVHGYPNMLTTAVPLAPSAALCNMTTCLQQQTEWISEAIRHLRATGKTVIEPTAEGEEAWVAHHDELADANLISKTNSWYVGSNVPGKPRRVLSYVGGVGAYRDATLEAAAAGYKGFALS
T4 sequence (A1IHE6 whole entry H325K): as above

Kd [1]: 120 ± 14 µM
Molecule: NC(=O)C1=CN([C@@H]2O[C@H](COP(=O)(O)OP(=O)(O)OC[C@H]3O[C@@H](n4cnc5c(N)ncnc54)[C@H](OP(=O)(O)O)[C@@H]3O)[C@@H](O)[C@H]2O)C=CC1 [NADPH]

Molecule: ACMO (Gordonia sp. TY-5)
Km [2]: 8.9 ± 1.5 µM
kcat [2]: 1 ± 0.1 s⁻¹
kcat/Km [2]: 112000 ± 20000 M⁻¹ s⁻¹

Ki [3]: 166 ± 13 µM
Kd [4]: 0.5 ± 0.04 µM
Ki [5]: 27 ± 6 µM
Kd [6]: 21.1 ± 4.1 µM
Molecule: NC(=O)c1ccc[n+]([C@@H]2O[C@H](COP(=O)(O)OP(=O)(O)OC[C@H]3O[C@@H](n4cnc5c(N)ncnc54)[C@H](OP(=O)(O)O)[C@@H]3O)[C@@H](O)[C@H]2O)c1 [NADP^+]

B1: ACMO (Gordonia sp. TY-5) (protein)
chain: MSTTTLDAAVIGTGVAGLYELHMLREQGLEVRAYDKASGVGGTWYWNRYPGARFDSEAYIYQYLFDEDLYKGWSWSQRFPGQEEIERWLNYVADSLDLRRDISLETEITSAVFDEDRNRWTLTTADGDTIDAQFLITCCGMLSAPMKDLFPGQSDFGGQLVHTARWPKEGIDFAGKRVGVIGNGATGIQVIQSIAADVDELKVFIRTPQYALPMKNPSYGPDEVAWYKSRFGELKDTLPHTFTGFEYDFTDAWEDLTPEQRRARLEDDYENGSLKLWLASFAEIFSDEQVSEEVSEFVREKMRARLVDPELCDLLIPSDYGFGTHRVPLETNYLEVYHRDNVTAVLVRDNPITRIRENGIELADGTVHELDVIIMATGFDAGTGALTRIDIRGRDGRTLADDWSRDIRTTMGLMVHGYPNMLTTAVPLAPSAALCNMTTCLQQQTEWISEAIRHLRATGKTVIEPTAEGEEAWVAHHDELADANLISKTNSWYVGSNVPGKPRRVLSYVGGVGAYRDATLEAAAAGYKGFALS
notes: full-length, codon-optimised gene in pGEX4T1, E. coli DH5alpha; N-terminal GST removed with thrombin; calculated mass 59,780 Da
Km [7]: 1500 ± 220 µM
kcat [7]: 1.5 ± 0.1 s⁻¹
kcat/Km [7]: 1000 ± 150 M⁻¹ s⁻¹
Km [8, 18]: 0.34 ± 0.03 µM
kcat [8, 18]: 2.1 ± 0.1 s⁻¹
kcat/Km [8, 18]: 6e+06 ± 550000 M⁻¹ s⁻¹
Km [9]: 2400 ± 400 µM
kcat [9]: 3.6 ± 0.2 s⁻¹
kcat/Km [9]: 1500 ± 300 M⁻¹ s⁻¹
Km [10, 18]: 6.7 ± 0.8 µM
kcat [10, 18]: 2 ± 0.1 s⁻¹
kcat/Km [10, 18]: 300000 ± 36000 M⁻¹ s⁻¹
Km [11]: 0.37 ± 0.06 µM
kcat [11]: 1.9 ± 0.1 s⁻¹
kcat/Km [11]: 4.8e+06 ± 760000 M⁻¹ s⁻¹
Km [12]: 4.4 ± 0.5 µM
kcat [12]: 2.2 ± 0.1 s⁻¹
kcat/Km [12]: 510000 ± 55000 M⁻¹ s⁻¹
Km [13]: 1.5 ± 0.2 µM
kcat [13]: 2 ± 0.1 s⁻¹
kcat/Km [13]: 1.4e+06 ± 190000 M⁻¹ s⁻¹
Km [14]: 6.7 ± 1.3 µM
kcat [14]: 1.5 ± 0.1 s⁻¹
kcat/Km [14]: 220000 ± 45000 M⁻¹ s⁻¹
Km [15]: 170 ± 11 µM
kcat [15]: 1.4 ± 0.2 s⁻¹
kcat/Km [15]: 8500 ± 590 M⁻¹ s⁻¹
Km [16]: 120 ± 11 µM
kcat [16]: 4.3 ± 0.1 s⁻¹
kcat/Km [16]: 35000 ± 3200 M⁻¹ s⁻¹
Km [17]: 1.5 ± 0.1 µM
kcat [17]: 3.9 ± 0.1 s⁻¹
kcat/Km [17]: 2.6e+06 ± 130000 M⁻¹ s⁻¹

B2: ACMO (Gordonia sp. TY-5; H325K) (protein)
chain: B1 chain with H325K
notes: as for B1
Km [8, 19]: 0.48 ± 0.05 µM
kcat [8, 19]: 1.6 ± 0.1 s⁻¹
kcat/Km [8, 19]: 3.25e+06 ± 320000 M⁻¹ s⁻¹
Km [10, 20]: 0.48 ± 0.05 µM
kcat [10, 20]: 1.6 ± 0.1 s⁻¹
kcat/Km [10, 20]: 3.25e+06 ± 320000 M⁻¹ s⁻¹

B3: GSTACMO (Gordonia sp. TY-5) (protein)
chain: B1 chain
notes: full-length with N-terminal GST tag kept (pGEX4T1), E. coli DH5alpha
Km [9]: 2300 ± 380 µM
kcat [9]: 2.8 ± 0.1 s⁻¹
kcat/Km [9]: 1200 ± 200 M⁻¹ s⁻¹
